{
  "source": "IntAct's records for PubMed 31515488",
  "parents": {"B1": {"name": "Cyclin-dependent kinase 4 inhibitor C (Homo sapiens), P42773 (parent)", "chain": "MAEPWGNELASAAARGDLEQLTSLLQNNVNVNAQNGFGRTALQVMKLGNPEIARRLLLRGANPDLKDRTGFAVIHDAARAGFLDTLQTLLEFQADVNIEDNEGNLPLHLAAKEGHLRVVEFLVKHTASNVGHRNHKGDTACDLARLYGRNEVVSLMQANGAGGATNLQ"}, "B2": {"name": "Angiomotin (Homo sapiens), Q4VCS5 (parent)", "chain": "MRNSEEQPSGGTTVLQRLLQEQLRYGNPSENRSLLAIHQQATGNGPPFPSGSGNPGPQSDVLSPQDHHQQLVAHAARQEPQGQEIQSENLIMEKQLSPRMQNNEELPTYEEAKVQSQYFRGQQHASVGAAFYVTGVTNQKMRTEGRPSVQRLNPGKMHQDEGLRDLKQGHVRSLSERLMQMSLATSGVKAHPPVTSAPLSPPQPNDLYKNPTSSSEFYKAQGPLPNQHSLKGMEHRGPPPEYPFKGMPPQSVVCKPQEPGHFYSEHRLNQPGRTEGQLMRYQHPPEYGAARPAQDISLPLSARNSQPHSPTSSLTSGGSLPLLQSPPSTRLSPARHPLVPNQGDHSAHLPRPQQHFLPNQAHQGDHYRLSQPGLSQQQQQQQQQHHHHHHHQQQQQQQPQQQPGEAYSAMPRAQPSSASYQPVPADPFAIVSRAQQMVEILSDENRNLRQELEGCYEKVARLQKVETEIQRVSEAYENLVKSSSKREALEKAMRNKLEGEIRRMHDFNRDLRERLETANKQLAEKEYEGSEDTRKTISQLFAKNKESQREKEKLEAELATARSTNEDQRRHIEIRDQALSNAQAKVVKLEEELKKKQVYVDKVEKMQQALVQLQAACEKREQLEHRLRTRLERELESLRIQQRQGNCQPTNVSEYNAAALMELLREKEERILALEADMTKWEQKYLEENVMRHFALDAAATVAAQRDTTVISHSPNTSYDTALEARIQKEEEEILMANKRCLDMEGRIKTLHAQIIEKDAMIKVLQQRSRKEPSKTEQLSCMRPAKSLMSISNAGSGLLSHSSTLTGSPIMEEKRDDKSWKGSLGILLGGDYRAEYVPSTPSPVPPSTPLLSAHSKTGSRDCSTQTERGTESNKTAAVAPISVPAPVAAAATAAAITATAATITTTMVAAAPVAVAAAAAPAAAAAPSPATAAATAAAVSPAAAGQIPAAASVASAAAVAPSAAAAAAVQVAPAAPAPVPAPALVPVPAPAAAQASAPAQTQAPTSAPAVAPTPAPTPTPAVAQAEVPASPATGPGPHRLSIPSLTCNPDKTDGPVFHSNTLERKTPIQILGQEPDAEMVEYLI", "partner": "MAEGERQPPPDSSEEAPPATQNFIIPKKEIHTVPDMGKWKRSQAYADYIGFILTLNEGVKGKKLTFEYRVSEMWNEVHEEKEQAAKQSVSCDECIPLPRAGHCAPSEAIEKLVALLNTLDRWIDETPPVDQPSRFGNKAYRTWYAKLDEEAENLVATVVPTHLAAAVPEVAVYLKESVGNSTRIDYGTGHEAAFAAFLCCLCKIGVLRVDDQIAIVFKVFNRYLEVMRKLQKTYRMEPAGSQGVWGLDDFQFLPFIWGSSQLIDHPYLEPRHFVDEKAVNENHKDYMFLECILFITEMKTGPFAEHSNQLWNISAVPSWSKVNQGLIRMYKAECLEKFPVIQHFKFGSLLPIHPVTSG"}, "B3": {"name": "Baculoviral IAP repeat-containing protein 7 (Homo sapiens), Q96CA5 (parent)", "chain": "MGPKDSAKCLHRGPQPSHWAAGDGPTQERCGPRSLGSPVLGLDTCRAWDHVDGQILGQLRPLTEEEEEEGAGATLSRGPAFPGMGSEELRLASFYDWPLTAEVPPELLAAAGFFHTGHQDKVRCFFCYGGLQSWKRGDDPWTEHAKWFPSCQFLLRSKGRDFVHSVQETHSQLLGSWDPWEEPEDAAPVAPSVPASGYPELPTPRREVQSESAQEPGGVSPAEAQRAWWVLEPPGARDVEAQLRRLQEERTCKVCLDRAVSIVFVPCGHLVCAECAPGLQLCPICRAPVRSRVRTFLS", "partner": "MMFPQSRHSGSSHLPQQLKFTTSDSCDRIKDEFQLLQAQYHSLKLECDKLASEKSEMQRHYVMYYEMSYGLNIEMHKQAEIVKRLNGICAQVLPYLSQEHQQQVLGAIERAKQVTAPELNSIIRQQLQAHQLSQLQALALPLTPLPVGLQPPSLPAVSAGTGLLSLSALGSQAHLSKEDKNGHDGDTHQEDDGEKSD"}, "B4": {"name": "Dynein light chain Tctex-type 3 (Homo sapiens), P51808 (parent)", "chain": "MEEYHRHCDEVGFNAEEAHNIVKECVDGVLGGEDYNHNNINQWTASIVEQSLTHLVKLGKAYKYIVTCAVVQKSAYGFHTASSCFWDTTSDGTCTVRWENRTMNCIVNVFAIAIVL"}, "B5": {"name": "Zinc finger and BTB domain-containing protein 9 (Homo sapiens), Q96C00 (parent)", "chain": "METPTPLPPVPASPTCNPAPRTIQIEFPQHSSSLLESLNRHRLEGKFCDVSLLVQGRELRAHKAVLAAASPYFHDKLLLGDAPRLTLPSVIEADAFEGLLQLIYSGRLRLPLDALPAHLLVASGLQMWQVVDQCSEILRELETSGGGISARGGNSYHALLSTTSSTGGWCIRSSPFQTPVQSSASTESPASTESPVGGEGSELGEVLQIQVEEEEEEEEDDDDEDQGSATLSQTPQPQRVSGVFPRPHGPHPLPMTATPRKLPEGESAPLELPAPPALPPKIFYIKQEPFEPKEEISGSGTQPGGAKEETKVFSGGDTEGNGELGFLLPSGPGPTSGGGGPSWKPVDLHGNEILSGGGGPGGAGQAVHGPVKLGGTPPADGKRFGCLCGKRFAVKPKRDRHIMLTFSLRPFGCGICNKRFKLKHHLTEHMKTHAGALHACPHCGRRFRVHACFLRHRDLCKGQGWATAHWTYK", "partner": "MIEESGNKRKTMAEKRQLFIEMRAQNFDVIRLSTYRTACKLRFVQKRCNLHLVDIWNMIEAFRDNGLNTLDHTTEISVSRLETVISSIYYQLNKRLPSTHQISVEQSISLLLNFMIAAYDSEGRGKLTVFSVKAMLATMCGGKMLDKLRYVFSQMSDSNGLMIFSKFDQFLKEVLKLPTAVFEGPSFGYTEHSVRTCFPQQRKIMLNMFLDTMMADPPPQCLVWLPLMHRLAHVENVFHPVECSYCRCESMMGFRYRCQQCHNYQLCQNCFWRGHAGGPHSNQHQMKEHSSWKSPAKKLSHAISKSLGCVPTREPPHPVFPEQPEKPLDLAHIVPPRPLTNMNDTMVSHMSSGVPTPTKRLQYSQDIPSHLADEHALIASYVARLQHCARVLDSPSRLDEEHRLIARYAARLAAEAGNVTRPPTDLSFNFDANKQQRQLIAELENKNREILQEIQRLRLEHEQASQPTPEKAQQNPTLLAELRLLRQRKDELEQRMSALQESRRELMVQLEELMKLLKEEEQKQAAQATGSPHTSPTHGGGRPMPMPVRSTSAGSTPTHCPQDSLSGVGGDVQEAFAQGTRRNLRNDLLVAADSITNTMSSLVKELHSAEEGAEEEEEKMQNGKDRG"}, "B6": {"name": "Methanethiol oxidase (Homo sapiens), Q13228 (parent)", "chain": "MATKCGNCGPGYSTPLEAMKGPREEIVYLPCIYRNTGTEAPDYLATVDVDPKSPQYCQVIHRLPMPNLKDELHHSGWNTCSSCFGDSTKSRTKLVLPSLISSRIYVVDVGSEPRAPKLHKVIEPKDIHAKCELAFLHTSHCLASGEVMISSLGDVKGNGKGGFVLLDGETFEVKGTWERPGGAAPLGYDFWYQPRHNVMISTEWAAPNVLRDGFNPADVEAGLYGSHLYVWDWQRHEIVQTLSLKDGLIPLEIRFLHNPDAAQGFVGCALSSTIQRFYKNEGGTWSVEKVIQVPPKKVKGWLLPEMPGLITDILLSLDDRFLYFSNWLHGDLRQYDISDPQRPRLTGQLFLGGSIVKGGPVQVLEDEELKSQPEPLVVKGKRVAGGPQMIQLSLDGKRLYITTSLYSAWDKQFYPDLIREGSVMLQVDVDTVKGGLKLNPNFLVDFGKEPLGPALAHELRYPGGDCSSDIWI", "partner": "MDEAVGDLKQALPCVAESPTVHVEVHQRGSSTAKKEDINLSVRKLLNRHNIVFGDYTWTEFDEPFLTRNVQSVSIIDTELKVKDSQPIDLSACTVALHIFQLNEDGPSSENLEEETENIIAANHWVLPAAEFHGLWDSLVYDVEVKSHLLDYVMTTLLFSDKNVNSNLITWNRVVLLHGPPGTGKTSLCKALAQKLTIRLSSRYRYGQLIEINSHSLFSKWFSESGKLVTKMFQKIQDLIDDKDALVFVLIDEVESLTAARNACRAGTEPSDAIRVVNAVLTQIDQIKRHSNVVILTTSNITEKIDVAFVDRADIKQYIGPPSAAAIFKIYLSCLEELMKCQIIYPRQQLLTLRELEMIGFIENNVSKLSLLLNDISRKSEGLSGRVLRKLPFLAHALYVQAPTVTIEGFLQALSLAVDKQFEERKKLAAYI"}},
  "data": [
    {"variants_of": "B1", "conditions": "with cdk6_human CDK6, Q00534", "values": [
      {"variant": "T69A", "effect of a mutation on the interaction": "with no effect"},
      {"variant": "R117Q", "effect of a mutation on the interaction": "with no effect"},
      {"variant": "R133Q", "effect of a mutation on the interaction": "with no effect"}
    ]},
    {"variants_of": "B1", "conditions": "with cdk4_human CDK4, P11802", "values": [
      {"variant": "T69A", "effect of a mutation on the interaction": "with no effect"}
    ]},
    {"variants_of": "B1", "conditions": "with itf2_human TCF4, P15884", "values": [
      {"variant": "T69A", "effect of a mutation on the interaction": "with no effect"}
    ]},
    {"variants_of": "B2", "conditions": "with ptpa_human PTPA", "values": [
      {"variant": "T899A", "effect of a mutation on the interaction": "with no effect"}
    ]},
    {"variants_of": "B3", "conditions": "with tle5_human TLE5, Q08117", "values": [
      {"variant": "H164R", "effect of a mutation on the interaction": "with no effect"}
    ]},
    {"variants_of": "B3", "conditions": "with tle5_human TLE5, Q08117", "remark": "another data set of the same source", "values": [
      {"variant": "H164R", "effect of a mutation on the interaction": "with no effect"}
    ]},
    {"variants_of": "B4", "conditions": "with dc1i2_human DYNC1I2, Q13409", "values": [
      {"variant": "A75T", "effect of a mutation on the interaction": "with no effect"}
    ]},
    {"variants_of": "B5", "conditions": "with dtnb_human DTNB", "values": [
      {"variant": "S173C", "effect of a mutation on the interaction": "with no effect"}
    ]},
    {"variants_of": "B6", "conditions": "with pch2_human TRIP13, Q15645", "values": [
      {"variant": "R211Q", "effect of a mutation on the interaction": "with no effect"}
    ]}
  ]
}
